Experimental data published in patent US20210047432A1 (DIACCURATE, published 2021).

B1: #14G9 mAb (mouse anti-sPLA2-GIB monoclonal antibody) (antibody, V domains shown)
VH: QVQLQQPGAELVKPGASVKLSCKASGYTFTNYWIHWVKRRPGQGLEWIGNIDPSDTRTHYNQKFKDKATLAVDKSSSTAYMQLSSLTSEDSAVFYCARQTLYYEALDYWGQGTTLTVSS
VL: DIVMTQSHKLMSTSVGDRVSITCKASQDVSTAVAWYQEKPGQSPKLLIYWASTRHTGVPNRFTGSRSGTDYTLTISSVQAEDLALYYCQQDYSTPPTFGAGTKLELKR
notes: Mouse hybridoma antibody; also called monoclonal antibody 14G9
B2: human FcγRIIB (receptor, UniProt P31994 43-310, looked up)
chain: TPAAPPKAVLKLEPQWINVLQEDSVTLTCRGTHSPESDSIQWFHNGNLIPTHTQPSYRFKANNNDSGEYTCQTGQTSLSDPVHLTVLSEWLVLQTPHLEFQEGETIVLRCHSWKDKPLVKVTFFQNGKSKKFSRSDPNFSIPQANHSHSGDYHCTGNIGYTLYSSKPVTITVQAPSSSPMGIIVAVVTGIAVAAIVAAVVALIYCRKKRISALPGYPECREMGETLPEKPANPTNPDEADKVGAENTITYSLLMHPDALEEPDDQNRI
notes: whole, on cells; also called hFcγRIIB

Legend:
[1] = molecular target: T1, recombinant human sPLA2-GIB (mature secreted group IB pancreatic phospholipase A2) (human, UniProt P04054 23-148); experiment: cell-based or functional assay
T1 sequence (P04054 23-148): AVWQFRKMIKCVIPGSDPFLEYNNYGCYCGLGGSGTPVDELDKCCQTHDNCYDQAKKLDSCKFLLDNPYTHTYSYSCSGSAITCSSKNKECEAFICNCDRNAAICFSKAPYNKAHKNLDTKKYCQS

[2] = molecular target: T1, recombinant human sPLA2-GIB (mature …); experiment: competitive ELISA: constant antibody premixed with dilutions of soluble antigen, free antibody caught on antigen-coated plate
Description: (§1) Binding affinities of the antibodies to pro-sPLA2-IB and sPLA2-IB were measured by plate-based competition immunoassay. For the competition ELISA, briefly, constant amounts of antibody at different levels were premixed with serial dilutions of antigen protein, human sPLA2-IB or pro-sPLA2-IB, ranging from 0 to 10 µg/ml, and incubated for two hours at room temperature to reach pseudo-binding equilibrium between the antibody and antigen. These solutions were then transferred to 96-well sPLA2-IB or pro-sPLA2-IB pre-coated plates to allow the free-antibody in the mixtures to bind to plate-coated sPLA2-IB or pro-sPLA2-IB. The plates were typically coated with 30 to 100 ng of human sPLA2-IB or pro-sPLA2-IB protein in PBS solution overnight at 4° C. followed by BSA nonspecific blocking. After washing off excess antibody in solution, plate-bound antibodies were detected with an HRP-conjugated goat anti-mouse IgG or IgA polyclonal antibody reagent and developed using colorimetric substrate. The dependency of the signals on the concentrations of antigen in solution was analyzed with a 4-parameter fit analysis using Prism™ software (Graph Pad) and reported as IC50.

[3] = molecular target: T2, recombinant human pro-sPLA2-GIB (human, UniProt P04054 16-148); experiment: as above
T2 construct: also called pro-sPLA2-IB; proPLA2-GIB
T2 sequence (P04054 16-148): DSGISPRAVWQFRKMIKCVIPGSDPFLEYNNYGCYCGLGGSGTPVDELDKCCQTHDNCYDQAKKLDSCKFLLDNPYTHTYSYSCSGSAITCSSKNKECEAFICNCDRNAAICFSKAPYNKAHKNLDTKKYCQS
Description: as §1

[4] = molecular target: T1, recombinant human sPLA2-GIB (mature …); experiment: SPR (BIAcore 2000), antibody captured on anti-mouse IgG surface, antigen in solution
Description: (§2) The affinity constants (KD) of the pro-sPLA2-IB and sPLA2-IB binding to the #14G9 antibody were determined by surface kinetics on a real-time biosensor surface plasmon resonance assay (BIAcore™). More specifically, the affinity of the antibodies for human pro-sPLA2-IB and sPLA2-IB was measured using a BIAcore® 2000. The antibody was captured on an anti-mouse IgG surface and exposed to various concentrations of recombinant pro-sPLA2-IB and sPLA2-IB protein. Kinetic analysis using BIAevaluation™ software was performed to obtain the association and dissociation rate constants.

[5] = molecular target: T2, recombinant human pro-sPLA2-GIB; experiment: as above
Description: as §2

[6] = molecular target: T1, recombinant human sPLA2-GIB (mature …); experiment: indirect ELISA: antigen coated on the plate, #14G9 mAb titrated (x axis mAb, Log M, -9.5 to -6.5), OD450 nm readout
Description: (§3) Microplate wells were typically coated with 100 ng of recombinant human sPLA2-X, sPLA2-IB or pro-sPLA2-IB in PBS pH 7.5, overnight at 4° C. Sample wells were washed three times with PBS containing 0.05% Tween 20. After final washing, sample wells were treated with blocking solution containing 1% bovine serum albumin (BSA) in PBS buffer for 60 min at room temperature. Following washing with PBS containing 0.05% Tween 20, increasing amounts (10 ng/mL up to 3 μg/mL) of #14G9 mAb were added to antigen-coated wells. and incubated for 120 min at room temperature. Following washing with PBS containing 0.05% Tween 20, the binding of #14G9 mAb was detected with an HRP-conjugated goat anti-mouse IgG or IgA polyclonal antibody reagent and developed using colorimetric substrate. The dependency of the signals on the concentrations of antigen in solution was analyzed with a 4-parameter fit analysis using Prism™ software (Graph Pad) and reported as EC50.

[7] = molecular target: T2, recombinant human pro-sPLA2-GIB; experiment: indirect ELISA: antigen coated on the plate, #14G9 mAb titrated (x axis mAb, Log M, -9.5 to -6.5), OD450 nm readout; the curve reaches only OD450 about 1.6 at the highest concentration, no upper plateau
Description: as §3

[8] = molecular target: T3, immune complex of #2B with sPLA2-GIB (human, UniProt P04054 23-148); experiment: flow cytometry, antibody-antigen immune complex on CHO cells expressing the receptor
T3 construct: also called immune complexe of #2B; antibody-antigen immune complex
T3 sequence (heavy, as listed by the source, chain 1 of 3): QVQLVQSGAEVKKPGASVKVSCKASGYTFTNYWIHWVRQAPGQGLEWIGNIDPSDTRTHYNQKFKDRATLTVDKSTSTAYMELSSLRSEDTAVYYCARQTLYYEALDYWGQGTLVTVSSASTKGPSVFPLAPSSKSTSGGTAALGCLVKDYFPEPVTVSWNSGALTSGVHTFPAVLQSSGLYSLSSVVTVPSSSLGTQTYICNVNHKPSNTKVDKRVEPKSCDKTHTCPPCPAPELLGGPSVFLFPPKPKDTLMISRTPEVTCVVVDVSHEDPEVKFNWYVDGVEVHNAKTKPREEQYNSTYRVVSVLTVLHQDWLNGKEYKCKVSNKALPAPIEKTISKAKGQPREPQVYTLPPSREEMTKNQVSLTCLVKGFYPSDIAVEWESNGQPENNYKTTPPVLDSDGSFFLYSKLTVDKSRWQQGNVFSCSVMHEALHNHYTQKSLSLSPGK
T3 sequence (light, as listed by the source, chain 2 of 3): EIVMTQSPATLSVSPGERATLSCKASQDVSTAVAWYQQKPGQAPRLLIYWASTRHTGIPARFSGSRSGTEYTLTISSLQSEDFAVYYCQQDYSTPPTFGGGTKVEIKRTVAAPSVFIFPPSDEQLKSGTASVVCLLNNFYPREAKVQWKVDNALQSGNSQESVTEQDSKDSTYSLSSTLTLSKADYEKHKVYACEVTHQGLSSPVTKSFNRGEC
T3 sequence (P04054 23-148, chain 3 of 3): as the sequence (P04054 23-148) above
Description: (§4) Antibody-antigen immune complex were generated by co-incubation of 10 µg/ml of humanized antibodies and 5 μg/ml of sPLA2-GIB for 30 min at 37° C. Immune complexes were then incubated with 1×10⁵ CHO cells stably expressing human FcγRs for 30 min on ice. The cells were then washed, detached, fixed, and analyzed by flow cytometry (FACSCalibur; BD Biosciences).
(§5) The binding of monomeric #2B, #2B1 and #2B2 to human FcγRs was tested by flow cytometry by incubating the mAbs with CHO cells stably expressing human FcγRI, FcγRIIA (H131), FcγRIIA(R131), FcγRIIB, FcγRIIIA(F176), FcγRIIIA(V176), FcγRIIIB(NA1), FcγRIIIB(NA2), and FcγRIIIB(SH), (REF P. Bruhns). As presented in FIG. 9, #2B is binding to hFcγRI and hFcγRIIIA(V176) only, whereas no monomeric binding of #2B1 and #2B2 to all tested hFcγRs was observed. Antibody-antigen immune complex was tested by first incubating the mAb with the antigen and then, incubating the immune complexes formed with CHO cells stably expressing human FcγRs. The immune complexe of #2B is binding to all tested hFcγRs, except hFcγRIIB (FIG. 10). Weak binding is observed for immune complex of #2B1 to hFcγRIIIA(V176) (data not shown), whereas no immune complex binding of #2B2 to any tested hFcγRs (data not shown).

[9] = molecular target: immune complex of #2B2 with sPLA2-GIB (human, UniProt P04054 23-148); experiment: as above
Sequence of immune complex of #2B2 with sPLA2-GIB (heavy, as listed by the source, chain 1 of 3): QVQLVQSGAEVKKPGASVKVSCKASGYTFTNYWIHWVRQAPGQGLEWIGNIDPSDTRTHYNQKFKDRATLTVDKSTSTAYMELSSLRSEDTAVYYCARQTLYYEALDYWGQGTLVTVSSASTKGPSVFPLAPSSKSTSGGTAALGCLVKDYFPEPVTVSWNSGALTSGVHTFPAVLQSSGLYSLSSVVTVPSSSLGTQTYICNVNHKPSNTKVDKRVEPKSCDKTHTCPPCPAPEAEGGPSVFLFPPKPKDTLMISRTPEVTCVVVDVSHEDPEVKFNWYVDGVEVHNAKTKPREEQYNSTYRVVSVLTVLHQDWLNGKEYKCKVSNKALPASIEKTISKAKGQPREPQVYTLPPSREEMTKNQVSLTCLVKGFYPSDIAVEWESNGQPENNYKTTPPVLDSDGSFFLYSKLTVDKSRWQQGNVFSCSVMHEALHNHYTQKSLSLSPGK
Sequence of immune complex of #2B2 with sPLA2-GIB (light, as listed by the source, chain 2 of 3): as the sequence (light, as listed by the source, chain 2 of 3) above
Sequence of immune complex of #2B2 with sPLA2-GIB (P04054 23-148, chain 3 of 3): as the sequence (P04054 23-148) above
Description: as §4, §5

Row | Binder | EC50 for the restoration of the sPLA2-IB effect on IL-7 induced phosphoSTAT5 nuclear translocation in human CD4 T cells (75 nM sPLA2-GIB) [1] [ng/mL] | inhibition of sPLA2-IB enzymatic activity, EC50 [1] [nM] | IC50 [2] [nM] | IC50 [3] [nM] | Kd [4] [nM] | Kd [5] [nM] | EC50 [6] [nM] | EC50 [7] [nM] | binding result [8] | binding result [9]
1 | B1 | 2.2 | 2.3 | 1 | 109 | 0.34 | 174 | 6 | 158 |  | 
2 | B2 |  |  |  |  |  |  |  |  | no binding | no binding
